We go through four molecules from article PMC3672946 (Nature, 2013).

T1: Nqo8 (Thermus thermophilus, UniProt Q60019 1-365)
T1 sequence (looked up): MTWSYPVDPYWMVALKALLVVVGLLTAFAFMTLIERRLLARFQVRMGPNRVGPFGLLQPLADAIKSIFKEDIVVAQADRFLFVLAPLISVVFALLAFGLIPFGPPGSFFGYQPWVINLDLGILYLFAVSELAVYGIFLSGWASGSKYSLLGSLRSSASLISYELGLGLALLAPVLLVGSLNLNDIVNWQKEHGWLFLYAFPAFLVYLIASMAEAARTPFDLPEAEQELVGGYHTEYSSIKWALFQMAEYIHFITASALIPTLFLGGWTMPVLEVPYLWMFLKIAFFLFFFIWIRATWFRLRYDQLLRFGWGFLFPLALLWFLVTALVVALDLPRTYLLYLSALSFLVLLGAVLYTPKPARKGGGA

T2: Nqo12 (Thermus thermophilus, UniProt Q56227 1-606)
T2 sequence (looked up): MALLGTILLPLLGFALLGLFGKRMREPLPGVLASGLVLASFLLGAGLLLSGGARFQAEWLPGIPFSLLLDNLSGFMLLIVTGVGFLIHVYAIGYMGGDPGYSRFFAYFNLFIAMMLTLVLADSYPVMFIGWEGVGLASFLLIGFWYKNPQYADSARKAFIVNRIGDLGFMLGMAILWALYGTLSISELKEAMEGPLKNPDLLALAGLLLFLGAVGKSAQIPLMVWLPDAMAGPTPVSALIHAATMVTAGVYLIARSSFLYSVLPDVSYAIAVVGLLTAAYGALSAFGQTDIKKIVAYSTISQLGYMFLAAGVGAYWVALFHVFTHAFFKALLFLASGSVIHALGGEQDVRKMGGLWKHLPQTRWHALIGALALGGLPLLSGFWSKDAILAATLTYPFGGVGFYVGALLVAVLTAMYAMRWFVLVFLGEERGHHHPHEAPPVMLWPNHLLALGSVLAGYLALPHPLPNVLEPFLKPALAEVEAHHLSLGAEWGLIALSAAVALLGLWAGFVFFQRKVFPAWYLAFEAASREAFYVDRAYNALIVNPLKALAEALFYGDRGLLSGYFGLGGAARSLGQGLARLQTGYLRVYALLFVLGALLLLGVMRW

T3: Nqo10 (Thermus thermophilus, UniProt Q56225 1-176)
T3 sequence (looked up): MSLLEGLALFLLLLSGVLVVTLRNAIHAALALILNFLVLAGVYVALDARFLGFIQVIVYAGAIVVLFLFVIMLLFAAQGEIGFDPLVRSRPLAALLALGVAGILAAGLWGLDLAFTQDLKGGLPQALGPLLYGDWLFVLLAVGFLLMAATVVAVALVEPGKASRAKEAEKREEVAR

B1: Nqo7 (natural protein, Thermus thermophilus, UniProt Q56217 1-119, looked up)
chain: MAPIQEYVGTLIYVGVALFIGVAALLVGALLGPKKPGRAKLMPYESGNDPAGEVKRFPVHFYVVAMLFILFDVEVAFLWPYAVSAGGLGLYGFLGVLAFTLLLFVGFLYEWWKGVMRWH
B2: Nqo14 (natural protein, Thermus thermophilus, UniProt Q56229 1-427, looked up)
chain: MTLAILAVFSVALTLLGFVLPPQGVKRATLLGLALALASLLLTWGKPFAFGPYAVDGVSQVFTLLALLGALWTVGLVRSGRFEFYLLVLYAALGMHLLASTRHLLLMLVALEALSLPLYALATWRRGQGLEAALKYFLLGALAAAFFLYGAALFYGATGSLVLGAPGEGPLYALALGLLLVGLGFKAALAPFHFWTPDVYQGSPTPVVLFMATSVKAAAFAALLRVAAPPEALALLVALSVVVGNLAALAQKEAKRLLAYSSIAHAGYMALALYTGNAQALGFYLLTYVLATGLAFAVLSQISPDRVPLEALRGLYRKDPLLGLAFLVAMLSLLGLPPLAGFWGKYLAFAEAARAGAWGVLVLALVTSAVSAYYYLGLGLAVFARPEETPFRPGPPWARAAVVAAGVLLLALGLLPGLVLPALAAGG
B3: Nqo13 (natural protein, Thermus thermophilus, UniProt Q56228 1-469, looked up)
chain: MVVLAVLLPVVFGALLLLGLPRALGVLGAGLSFLLNLYLFLTHPGGVAHAFQAPLLPGAGVYWAFGLDGLSALFFLTIALTVFLGALVARVEGRFLGLALLMEGLLLGLFAARDLLVFYVFFEAALIPALLMLYLYGGEGRTRALYTFVLFTLVGSLPMLAAVLGARLLSGSPTFLLEDLLAHPLQEEAAFWVFLGFALAFAIKTPLFPLHAWLPPFHQENHPSGLADALGTLYKVGVFAFFRFAIPLAPEGFAQAQGLLLFLAALSALYGAWVAFAAKDFKTLLAYAGLSHMGVAALGVFSGTPEGAMGGLYLLAASGVYTGGLFLLAGRLYERTGTLEIGRYRGLAQSAPGLAALALILFLAMVGLPGLSGFPGEFLTLLGAYKASPWLAALAFLSVIASAAYALTAFQKTFWEEGGSGVKDLAGAEWGFALLSVLALLLMGVFPGYFARGLHPLAEAFAKLLGGGA
B4: Nqo11 (natural protein, Thermus thermophilus, UniProt Q56226 1-95, looked up)
chain: MSYLLTSALLFALGVYGVLTRRTAILVFLSIELMLNAANLSLVGFARAYGLDGQVAALMVIAVAAAEVAVGLGLIVAIFRHRESTAVDDLSELRG

What all share (test): crystal structure
The target of one assay is T1, Nqo8.
The target in another assay is T2, Nqo12.
The assay “Nqo14” deals with B2.
In the next assay the target is T3, Nqo10.

Take B1: the binding result with Nqo8 is “binds”.
For the molecule B2, in the assay with Nqo12, the binding result is given as “binds”.
As to B3, in the assay with Nqo12, the binding result is given as “binds”.
Consider B4, for which the binding result in the assay with Nqo14 and in the assay with Nqo10 was “binds” in each case.
